Reference: article PMC9482650, “Quantitative fragmentomics allow affinity mapping of interactomes” (Nature Communications, 2022)

Legend:
HEK293T cells = test: Label-free MS proteome of stable cell lines expressing HPV16 E6 or E6ΔPBM; type: cell-based, human; conditions: protein level
Method in brief: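 Confluent HEK293T lysates in HEPES-KOH pH 7.5, 1% Triton X-100 buffer, TCA-precipitated, reduced, alkylated, Lys-C then trypsin digested. nanoLC (90 min gradient) on LTQ-Orbitrap Elite, TOP20 CID data-dependent acquisition; SequestHT search of human SwissProt, 1% FDR. Label-free quantification by peptide XIC intensity, technical triplicates.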

HaCat cell extract preys = test: PDZ-AP-MS, biotinylated MBP-PDZ baits; type: binding, human; conditions: for Difference log2: enrichment of prey
Experimental: (§1) For PDZ-AP-MS experiments, PDZ domains were cloned as His6-AviTag-MBP-PDZ constructs. For co-expression with BirA, E. coli BL21(DE3) cells were co-transformed with His6-AviTag-MBP, or His6-AviTag-MBP-PDZ-coding and PET21a-BirA (Addgene #20857) plasmids. Simultaneously to IPTG induction, 50 µM biotin was added to the media. After cell harvesting, the lysis buffer was also supplemented with 50 µM biotin. Otherwise, expression and double affinity purification was identical as previously described in details.
(§2) For PBM-AP-MS experiments, 30 μl streptavidin resin was mixed with biotin or peptide at 50–60 μM concentration in 6–6.5 resin volume for 60 min to achieve resin saturation. For PDZ-AP-MS experiments, 30 μl streptavidin resin was mixed with biotinylated MBP or MBP-PDZ at 40-50 μM concentration in >1000× resin volume for 60 min to achieve resin saturation. After saturation, resins were washed a single time (ten resin volume, holdup buffer), and were depleted with biotin (1 mM biotin, 5–10 resin volume, 10 min). Finally, resins were washed two times. 0.5 ml 2 mg/ml cell lysate was added to the dry resin (1 mg total input) and were incubated at 4 °C for 2 h. Then, the beads were washed three times with 10 resin volume buffer containing: 50 mM TRIS pH 8.5, 150 mM NaCl, 1% TritonX-100, 10× complete EDTA-free protease inhibitor cocktail, 2 mM EDTA, 1 mM TCEP. Then, the beads were washed two times with ten resin volume buffer containing: 50 mM TRIS pH 8.5, 150 mM NaCl, 1 mM TCEP. Finally, captured protein was eluted from the resin in two steps and the eluted fractions were pooled. For each elution the beads were incubated for 30 min with three resin volume buffer containing: 20 mM TRIS pH8.5, 100 mM NaCl, 500 μM TCEP, 8 M Urea. Between each step, the beads were separated by mild centrifugation and the supernatant was removed by gentle pipetting.
(§3) The samples were precipitated with TCA 20% overnight at 4 °C and centrifuged at 14,000 rpm for 10 min at 4 °C. The protein pellets were washed twice with 1 mL cold acetone and air dried. The protein extracts were solubilized in urea 8 M, reduced with 5 mM TCEP for 30 min, and alkylated with 10 mM iodoacetamide for 30 min in the dark. Double digestion was performed at 37 °C with 500 ng endoproteinase Lys-C for 4 h, followed by fourfold dilution and an overnight digestion with 500 ng trypsin. Peptide mixtures were then desalted on C18 spin-column and dried on Speed-Vacuum.
(§4) Samples were analyzed using an Ultimate 3000 nano-RSLC (Thermo Scientific, San Jose California) coupled in line with a LTQ-Orbitrap ELITE mass spectrometer via a nano-electrospray ionization source (Thermo Scientific, San Jose California). Peptide mixtures were injected in 0.1% TFA on a C18 Acclaim PepMap100 trap-column (75 µm ID × 2 cm, 3 µm, 100 Å, Thermo Fisher Scientific) for 3 min at 5 µL/min with 2% ACN, 0.1% FA in H2O and then separated on a C18 Accucore nano-column (75 µm ID × 50 cm, 2.6 µm, 150 Å, Thermo Fisher Scientific) at 220 nl/min and 38 °C with a 90 min linear gradient from 5% to 30% buffer B (A: 0.1% FA in H2O/B: 99% ACN, 0.1% FA in H2O), regeneration at 5% B. The mass spectrometer was operated in positive ionization mode, in data-dependent mode with survey scans from m/z 350–1500 acquired in the Orbitrap at a resolution of 120,000 at m/z 400. The 20 most intense peaks from survey scans were selected for further fragmentation in the Linear Ion Trap with an isolation window of 2.0 Da and were fragmented by CID with normalized collision energy of 35%. (TOP20CID method) Unassigned and single charged states were excluded from fragmentation. The Ion Target Value for the survey scans (in the Orbitrap) and the MS2 mode (in the Linear Ion Trap) were set to 1E6 and 5E3 respectively and the maximum injection time was set to 100 ms for both scan modes. Dynamic exclusion was set to 20 s after one repeat count with mass width at ±10 ppm. […]

HeLa cell extract preys = test: PDZ-AP-MS, biotinylated MBP-PDZ baits; type: binding, human; conditions: for Ratio: fold enrichment of prey; for Difference: log2 enrichment of prey
Experimental: as §1, §2, §3, §4

B1: PGP (protein, UniProt A6NDG6 1-321, looked up)
Glycerol-3-phosphate …: MAAAEAGGDDARCVRLSAERAQALLADVDTLLFDCDGVLWRGETAVPGAPEALRALRARGKRLGFITNNSSKTRAAYAEKLRRLGFGGPAGPGASLEVFGTAYCTALYLRQRLAGAPAPKAYVLGSPALAAELEAVGVASVGVGPEPLQGEGPGDWLHAPLEPDVRAVVVGFDPHFSYMKLTKALRYLQQPGCLLVGTNMDNRLPLENGRFIAGTGCLVRAVEMAAQRQADIIGKPSRFIFDCVSQEYGINPERTVMVGDRLDTDILLGATCGLKTILTLTGVSTLGDVKNNQESDCVSKKKMVPDFYVDSIADLLPALQG
Which “Difference log2 E6/Ctrl” value (HEK293T cells; E6 cell line vs control) does the source give for B1 here?
The value was 0.3606.

And the “Ratio E6/Ctrl” value (HEK293T cells; E6 cell line vs control)?
Its value is 1.284.

What about the “Difference log2 dPBM/E6” value (HEK293T cells; dPBM cell line vs E6 cell line) of the same molecule?
Its value is 0.0821.

What about the “Ratio dPBM/E6” value (HEK293T cells; dPBM cell line vs E6 cell line) of the same molecule?
Its value is 1.059.

What about the “Difference log2 dPBM/Ctrl” value (HEK293T cells; dPBM cell line vs control) of the same molecule?
The value was 0.4427.

And the “Ratio dPBM/Ctrl” value (HEK293T cells; dPBM cell line vs control)?
The value was 1.359.

B2: CDH1 (protein, UniProt P12830 155-882, looked up)
Cadherin-1: DWVIPPISCPENEKGPFPKNLVQIKSNKDKEGKVFYSITGQGADTPPVGVFIIERETGWLKVTEPLDRERIATYTLFSHAVSSNGNAVEDPMEILITVTDQNDNKPEFTQEVFKGSVMEGALPGTSVMEVTATDADDDVNTYNAAIAYTILSQDPELPDKNMFTINRNTGVISVVTTGLDRESFPTYTLVVQAADLQGEGLSTTATAVITVTDTNDNPPIFNPTTYKGQVPENEANVVITTLKVTDADAPNTPAWEAVYTILNDDGGQFVVTTNPVNNDGILKTAKGLDFEAKQQYILHVAVTNVVPFEVSLTTSTATVTVDVLDVNEAPIFVPPEKRVEVSEDFGVGQEITSYTAQEPDTFMEQKITYRIWRDTANWLEINPDTGAISTRAELDREDFEHVKNSTYTALIIATDNGSPVATGTGTLLLILSDVNDNAPIPEPRTIFFCERNPKPQVINIIDADLPPNTSPFTAELTHGASANWTIQYNDPTQESIILKPKMALEVGDYKINLKLMDNQNKDQVTTLEVSVCDCEGAAGVCRKAQPVEAGLQIPAILGILGGILALLILILLLLLFLRRRAVVKEPLLPPEDDTRDNVYYYDEEGGGEEDQDFDLSQLHRGLDARPEVTRNDVAPTLMSVPRYLPRPANPDEIGNFIDENLKAADTDPTAPPYDSLLVFDYEGSGSEAASLSSLNSSESDKDQDYDYLNEWGNRFKKLADMYGGGEDD
With B2 as the molecule, how does the “Difference log2” value (HaCat cell extract preys; bait TX1BP3 PDZ vs MBP) read?
The value was 8.222.

And the “Ratio TX1BP3/MBP” value (HaCat cell extract preys; bait TX1BP3 PDZ, fold change of prey)?
Its value is 298.682.

B3: NONO (protein, UniProt Q15233 1-471, looked up)
Non-POU domain-containing …: MQSNKTFNLEKQNHTPRKHHQHHHQQQHHQQQQQQPPPPPIPANGQQASSQNEGLTIDLKNFRKPGEKTFTQRSRLFVGNLPPDITEEEMRKLFEKYGKAGEVFIHKDKGFGFIRLETRTLAEIAKVELDNMPLRGKQLRVRFACHSASLTVRNLPQYVSNELLEEAFSVFGQVERAVVIVDDRGRPSGKGIVEFSGKPAARKALDRCSEGSFLLTTFPRPVTVEPMDQLDDEEGLPEKLVIKNQQFHKEREQPPRFAQPGSFEYEYAMRWKALIEMEKQQQDQVDRNIKEAREKLEMEMEAARHEHQVMLMRQDLMRRQEELRRMEELHNQEVQKRKQLELRQEEERRRREEEMRRQQEEMMRRQQEGFKGTFPDAREQEIRMGQMAMGGAMGINNRGAMPPAPVPAGTPAPPGPATMMPDGTLGLTPPTTERFGQAATMEGIGAIGGTPPAFNRAAPGAEFAPNKRRRY
For B3, which Ratio (HeLa cell extract preys; bait DLG1_1 PDZ vs MBP control) is on record?
The Ratio was 31.101.

What about the Difference (HeLa cell extract preys; bait DLG1_1 PDZ vs MBP control) of the same molecule?
The Difference was 4.959.

What about the Difference (HeLa cell extract preys; bait SCRIB_2 PDZ (biotinylated MBP-PDZ) vs MBP control) of the same molecule?
The Difference was 4.7577.

What about the Ratio (HeLa cell extract preys; bait SCRIB_2 PDZ vs MBP control) of the same molecule?
Its Ratio is 27.0527.

B4: BAIAP2L1 (protein, UniProt Q9UHR4 1-511, looked up)
BAR/IMD domain-containing …: MSRGPEEVNRLTESTYRNVMEQFNPGLRNLINLGKNYEKAVNAMILAGKAYYDGVAKIGEIATGSPVSTELGHVLIEISSTHKKLNESLDENFKKFHKEIIHELEKKIELDVKYMNATLKRYQTEHKNKLESLEKSQAELKKIRRKSQGSRNALKYEHKEIEYVETVTSRQSEIQKFIADGCKEALLEEKRRFCFLVDKHCGFANHIHYYHLQSAELLNSKLPRWQETCVDAIKVPEKIMNMIEEIKTPASTPVSGTPQASPMIERSNVVRKDYDTLSKCSPKMPPAPSGRAYTSPLIDMFNNPATAAPNSQRVNNSTGTSEDPSLQRSVSVATGLNMMKKQKVKTIFPHTAGSNKTLLSFAQGDVITLLIPEEKDGWLYGEHDVSKARGWFPSSYTKLLEENETEAVTVPTPSPTPVRSISTVNLSENSSVVIPPPDYLECLSMGAAADRRADSARTTSTFKAPASKPETAAPNDANGTAKPPFLSGENPFATVKLRPTVTNDRSAPIIR
How did the “Difference log2” value (HaCat cell extract preys; bait SCRIB_2 PDZ vs MBP) turn out when B4 was run?
Its value is 3.855.

What about the “Ratio SCRIB_2/MBP” value (HaCat cell extract preys; bait SCRIB_2 PDZ, fold change of prey) of the same molecule?
Its value is 14.4736.
